The nanobody polyreactivity screen of Harvey et al. (2022)

Test: yeast display, Sf9 membrane polyspecificity reagent, FACS + sequencing; frameworks hold sequencing errors
Outline: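 Sorting gates, low and high (top ~1%), were placed on anti-HA fluorescence to track expression and on streptavidin fluorescence to track reagent binding. A clone's polyreactivity label is taken from the gate it came out of. The reagent was 10% biotinylated, detergent-solubilized Sf9 membrane, applied for 1 hour at 4 °C to galactose-induced yeast display cells.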

| Sequence | polyreactivity (PSR sort gate) |
| --- | --- |
| QVQLVESGGGLVQAGGSLRLSCAASGIIFASNAMGWYIQAPGKERELVATINWTDSTTYYADSVKGRFTISRDNAKNNVYLLMNSLKPEDTAGYYCNAVPHWFYRYGRYDYWGQGTQVTVSS | low polyreactivity |
| QVQLVESGGGLVQAGGSLRLSCAASGIIFASNGMGWYRQAPGKERELLAAISSGGSTNYADSVKGRFTISRDNAKNTVYLQMNSLKPEDTAVYYCSTSGPQYYSRNFDYWGLGTQVTVSS | low polyreactivity |
| QVQLVESGGGLVQAGGSLRLSCAASGIIFASYAMGWYRQAPGKERELVAAITWDGDSTYYADSVKGRFSISRDNAKNTVYLQRNSLKPEDTAVYYCAADGVYVGFYGYDYDYWGQGTQVTVSS | low polyreactivity |
| QVQLVESGGGLVQAGGSLRLSCAASGIIFAVYTMGWYRQARGKERELVAALSSGGSTYYADSVQGRFTISRDNAKNTVYLQMNSLKPEDTAVYYCNAQYFWLWLTYDFDYWGQGTQVTVSS | high polyreactivity |
| QVQLVESGGGLVQAGGSLRLSCAASGIIFAWYAMGWYRQAPGKERELLAAISWSGGSTYYADSVKGRFTISRDNAKNTVYLQMNILKPEDSAVYYCAPFPRRQGKYDYWGKGTQVTVSS | high polyreactivity |
| QVQLVESGGGLVQAGGSLRLSCAASGIIFAWYAMGWYRQAPGKERELVAAINWSGGSTYYADSVKGRFTISRDNAKNTVYLQMNSLKPEDTAVYYCNADFQDRTDDYDYWGQGTQVTVSS | low polyreactivity |
| QVQLVESGGGLVQAGGSLRLSCAASGIIFAWYAMGWYRQAPGKERELVAAISWSGGSTYYADSVKGRFTISRDNAKNTVYLQMNSLKPEDTAVYYCAADSDYGGYDYWGQGTQVTVSS | high polyreactivity |
| QVQLVESGGGLVQAGGSLRLSCAASGIIFAWYAMGWYRQAPGKERELVAAISYSGGTTYYADSVKGRFTISRDNAKNTVYLQMNSLKPEDTAVYYCAARLHHFFTYDYWGQGTQVTVSS | low polyreactivity |
| QVQLVESGGGLVQAGGSLRLSCAASGIIFCDNAMGWYRHAPGKERELVAAITIGGTSTYYADSVKGRFTISRDNAKNTVYLQMNSLKPEDTAVYYCAKTILYDCDYWGQGTQVTVSS | low polyreactivity |
| QVQLVESGGGLVQAGGSLRLSCAASGIIFDCNAMGCYRQAPGKERELVAANTSSTDSTYYADSVKGRFTISRDNAKNTVYLQMNILKPEDTAVYYCAAAYPSKTFDYWGQGTHVTVSS | low polyreactivity |
| QVQLVESGGGLVQAGGSLRLSCAASGIIFDDYAMGWYRQAPGKERELVAAIRSGVSTNYADSVKGRFTISRDNAKNTVYLQMNSLKPEDTAVYYGAARNTAPYFTEYDYWGQGTQVTVSS | low polyreactivity |
| QVQLVESGGGLVQAGGSLRLSCAASGIIFDDYAMGWYRQAPGKERELVAAISVSGGSTYNADSVKGRFTISRDNAKNTVYLQMNSLKPEDTAVYYCAARLIVGRFLRYDYWGQGTQVTVSS | high polyreactivity |
| QVQLVESGGGLVQAGGSLRLSCAASGIIFDDYAMGWYRQAPGKERELVAAITDSGGSTYYADSVKGRFTISRDNAKNTVYLQMNSLKPEVTAVYYCAARTQRRVNRVGYRSNYYYWGQGTQVTVSS | low polyreactivity |
| QVQLVESGGGLVQAGGSLRLSCAASGIIFDEYAMGWYRQAPGKERELVAAITWSGGSTYYADSVKGRFTISRDNAKNTVYLQMNSLKPEDTAVYYCNAVQSDEIAYGDTRLDYWGQGTQVTVSS | low polyreactivity |
| QVQLVESGGGLVQAGGSLRLSCAASGIIFDGNAMGWYRQAPGKERELVASITSDSSTNYADSEKGRFTISRDNAKNTVYLQMNSLKPADTAVYYCAADHWIAPRRDYWGQGTQVTVSS | low polyreactivity |
| QVQLVESGGGLVQAGGSLRLSCAASGIIFDHYAMGWYRKAPGKERELVAAITSGGRTYYADSVKGRFTISRDNAKKTVYLQMNSLKPEDTAVYYCNARFRSSARLAYYYWGQGTQVTVSS | high polyreactivity |
| QVQLVESGGGLVQAGGSLRLSCAASGIIFDLYTKGWYRQAPGKEREFVATINWGGGNTYYADSVKGRFTISRDNAKNTVYLQMNSLKPDDTAVYYCAAAYTWYGYSQAYYYWGQGSQVTVSS | low polyreactivity |
